Measured values as given in patent publication US7064181 (Takeda / Millennium, dated 2006).

Tests used:
[1] = target: T1, rat GALR2 (galanin receptor type 2) (rat, UniProt O08726 1-372); test: displacement of [125I] rat galanin from GALR2-expressing CHO cell membrane fraction
T1 construct: Expressed in CHO/dhfr- cells; The assays used the membrane fraction of these cells; also called rat galanin receptor GALR2
T1 sequence: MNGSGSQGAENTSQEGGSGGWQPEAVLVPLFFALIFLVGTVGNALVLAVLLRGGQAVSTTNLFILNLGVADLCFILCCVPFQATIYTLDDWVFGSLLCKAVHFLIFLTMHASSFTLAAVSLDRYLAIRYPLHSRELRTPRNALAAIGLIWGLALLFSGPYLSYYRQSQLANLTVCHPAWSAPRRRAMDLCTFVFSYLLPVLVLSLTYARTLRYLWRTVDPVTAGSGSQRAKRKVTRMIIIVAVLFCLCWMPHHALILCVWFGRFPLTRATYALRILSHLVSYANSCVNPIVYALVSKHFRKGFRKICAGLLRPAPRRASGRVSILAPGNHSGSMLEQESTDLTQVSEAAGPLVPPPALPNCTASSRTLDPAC

[2] = target: T2, monoclonal antibody GR2-1N; test: competitive EIA on GR2-1N, competitor HRP-labeled SEQ ID NO:44 peptide
T2 construct: Mouse monoclonal against the same KLH complex; IgG2b, κ; also called hybridoma strain No. 4

B1: porcine ligand peptide (1-34) (peptide)
peptide: APVHRGRGGWTLNSAGYLLGPVLHPPSRAEGGGK
notes: also called porcine (1-34)
IC50 [1]: 1.4 nM

B2: porcine ligand peptide (1-30) (peptide)
peptide: APVHRGRGGWTLNSAGYLLGPVLHPPSRAE
notes: also called porcine (1-30)
IC50 [1]: 1.4 nM

B3: porcine ligand peptide (1-60) (peptide)
peptide: APVHRGRGGWTLNSAGYLLGPVLHPPSRAEGGGKGKTALGILDLWKAIDGLPYPQSQLAS
notes: also called porcine (1-60); inventive peptide synthesis product
IC50 [2]: 6 nM
